What was measured:
human Ang2 [1] = target: T1, human Ang2 (human, UniProt O15123 19-496, limits assumed); assay: ELISA, relative binding activity; IEX04-012 about 40 mg/mL in F10, 40 C, 1 week
T1 construct: Bought proteins; also called hAng2-biotin; Ang2-Bio (Sino)
T1 sequence (looked up): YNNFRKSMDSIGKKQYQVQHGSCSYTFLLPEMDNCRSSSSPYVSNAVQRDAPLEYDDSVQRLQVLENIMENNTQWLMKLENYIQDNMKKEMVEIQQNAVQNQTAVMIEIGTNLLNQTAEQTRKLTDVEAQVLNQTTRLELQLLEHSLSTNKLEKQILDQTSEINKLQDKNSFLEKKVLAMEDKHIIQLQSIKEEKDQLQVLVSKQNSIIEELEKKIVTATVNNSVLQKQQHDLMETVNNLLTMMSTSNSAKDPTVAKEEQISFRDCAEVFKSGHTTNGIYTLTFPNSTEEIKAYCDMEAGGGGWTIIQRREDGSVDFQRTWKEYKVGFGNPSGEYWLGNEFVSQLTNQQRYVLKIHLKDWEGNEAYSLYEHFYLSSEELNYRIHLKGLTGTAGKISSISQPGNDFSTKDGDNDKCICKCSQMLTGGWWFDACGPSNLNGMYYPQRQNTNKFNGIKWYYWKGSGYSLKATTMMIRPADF

human VEGF165 [2] = target: T2, human VEGF165 (human, UniProt P15692-4 27-191); assay: as above
T2 construct: all are put under this molecule; also called VEGF A; VEGFA

human Ang2 [3] = target: T1, human Ang2; assay: ELISA, relative binding activity; IEX04-012 about 40 mg/mL in F5, 40 C, 1 week
human VEGF165 [4] = target: T2, human VEGF165; assay: as above
human Ang2 [5] = target: T1, human Ang2; assay: ELISA, relative binding activity; 150 mg/mL formula, T0
human VEGF165 [6] = target: T2, human VEGF165; assay: as above
human Ang2 [7] = target: T1, human Ang2; assay: ELISA, relative binding activity; 120 mg/mL formula, 2-8 C, 12M
human VEGF165 [8] = target: T2, human VEGF165; assay: as above
human Ang2 [9] = target: T1, human Ang2; assay: ELISA, relative binding activity; IEX04-012 about 40 mg/mL in F10, 40 C, 0 weeks
human VEGF165 [10] = target: T2, human VEGF165; assay: as above
human Ang2 [11] = target: T1, human Ang2; assay: ELISA, relative binding activity; IEX04-012 about 40 mg/mL in F6, 40 C, 0 weeks
human VEGF165 [12] = target: T2, human VEGF165; assay: as above
human Ang2 [13] = target: T1, human Ang2; assay: ELISA, relative binding activity; final formula 40 mg/mL, 40 C, 4W
human VEGF165 [14] = target: T2, human VEGF165; assay: as above
human Ang2 [15] = target: T1, human Ang2; assay: ELISA, relative binding activity; final formula 40 mg/mL, 25 C, 3M
human Ang2 [16] = target: T1, human Ang2; assay: ELISA, relative binding activity; final formula 40 mg/mL, 25 C, 2M
human VEGF165 [17] = target: T2, human VEGF165; assay: as above
human Ang2 [18] = target: T1, human Ang2; assay: ELISA, relative binding activity; 120 mg/mL formula, 25 C, 2M
human VEGF165 [19] = target: T2, human VEGF165; assay: as above
human Ang2 [20] = target: T1, human Ang2; assay: ELISA, relative binding activity; final formula 40 mg/mL, 25 C, 1M
human VEGF165 [21] = target: T2, human VEGF165; assay: as above
human Ang2 [22] = target: T1, human Ang2; assay: ELISA, relative binding activity; final formula 40 mg/mL, 2-8 C, 6M
human VEGF165 [23] = target: T2, human VEGF165; assay: as above
human Ang2 [24] = target: T1, human Ang2; assay: ELISA, relative binding activity; IEX04-012 about 40 mg/mL in F9, 40 C, 0 weeks
human VEGF165 [25] = target: T2, human VEGF165; assay: as above
human Ang2 [26] = target: T1, human Ang2; assay: ELISA, relative binding activity; 120 mg/mL formula, 40 C, 2W
human VEGF165 [27] = target: T2, human VEGF165; assay: as above

T2 sequence (P15692 other isoform, or with tags, fused parts or gaps limits assumed): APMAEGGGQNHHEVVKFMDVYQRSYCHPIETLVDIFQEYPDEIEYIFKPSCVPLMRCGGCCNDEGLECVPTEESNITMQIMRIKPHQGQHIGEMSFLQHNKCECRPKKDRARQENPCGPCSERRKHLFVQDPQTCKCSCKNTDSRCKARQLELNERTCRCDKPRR

B1: IEX04-012 (bispecific antibody)
chain: DIQLTQSPSSLSASVGDRVTITCSASQDISNYLNWYQQKPGKAPKVLIYFTSSLHSGVPSRFSGSGSGTDFTLTISSLQPEDFATYYCQQYSTVPWTFGCGTKVEIKGGGGSGGGGSGGGGSGGGGSEVQLVESGGGLVQPGGSLRLSCAASGYDFTHYGMNWVRQAPGKCLEWVGWINTYTGEPTYAADFKRRFTFSLDTSKSTAYLQMNSLRAEDTAVYYCAKYPYYYGTSHWYFDVWGQGTLVTVSSGGGGSGGGGSGGGGSEVQLLESGGGLVQPGGSLRLSCAASGFALDYYAIGWFRQAPGKGLEGVSCISSGEGSTYYADSVKGRFTISRDNSKNTVYLQMNSLRAEDTAVYYCATDSRGDDVACEGLRRNEYDYWGQGTLVTVSS
Q: With B1 as the binder, how does the Relative binding Activity to Ang2 (ELISA, %) (human Ang2 [1]) read?
A: 98%

Q: What about the Relative binding Activity to VEGF (ELISA, %) (human VEGF165 [2]) of the same binder?
A: 99%

Q: And the Relative binding Activity to Ang2 (ELISA, %) (human Ang2 [3])?
A: 82%

Q: And the Relative binding Activity to VEGF (ELISA, %) (human VEGF165 [4])?
A: 98%

Q: What about the Relative binding Activity to Ang2 (ELISA, %) (human Ang2 [5]) of the same binder?
A: 103%

Q: What about the Relative binding Activity to VEGF A (ELISA, %) (human VEGF165 [6]) of the same binder?
A: 92%

Q: And the Relative binding Activity to Ang2 (ELISA, %) (human Ang2 [7])?
A: 104%

Q: And the Relative binding Activity to VEGF A (ELISA, %) (human VEGF165 [8])?
A: 104%

Q: And the Relative binding Activity to Ang2 (ELISA, %) (human Ang2 [9])?
A: 100%

Q: And the Relative binding Activity to VEGF (ELISA, %) (human VEGF165 [10])?
A: 100%

Q: What about the Relative binding Activity to Ang2 (ELISA, %) (human Ang2 [11]) of the same binder?
A: 100%

Q: What about the Relative binding Activity to VEGF (ELISA, %) (human VEGF165 [12]) of the same binder?
A: 100%

Q: And the Relative binding Activity to Ang2 (ELISA, %) (human Ang2 [13])?
A: 74%

Q: And the Relative binding Activity to VEGF A (ELISA, %) (human VEGF165 [14])?
A: 78%

Q: What about the Relative binding Activity to Ang2 (ELISA, %) (human Ang2 [15]) of the same binder?
A: 85%

Q: What about the Relative binding Activity to Ang2 (ELISA, %) (human Ang2 [16]) of the same binder?
A: 84%

Q: And the Relative binding Activity to VEGF A (ELISA, %) (human VEGF165 [17])?
A: 102%

Q: And the Relative binding Activity to Ang2 (ELISA, %) (human Ang2 [18])?
A: 84%

Q: And the Relative binding Activity to VEGF A (ELISA, %) (human VEGF165 [19])?
A: 92%

Q: And the Relative binding Activity to Ang2 (ELISA, %) (human Ang2 [20])?
A: 93%

Q: And the Relative binding Activity to VEGF A (ELISA, %) (human VEGF165 [21])?
A: 98%

Q: And the Relative binding Activity to Ang2 (ELISA, %) (human Ang2 [22])?
A: 100%

Q: And the Relative binding Activity to VEGF A (ELISA, %) (human VEGF165 [23])?
A: 99%

Q: What about the Relative binding Activity to Ang2 (ELISA, %) (human Ang2 [24]) of the same binder?
A: 100%

Q: What about the Relative binding Activity to VEGF (ELISA, %) (human VEGF165 [25]) of the same binder?
A: 100%

Q: And the Relative binding Activity to Ang2 (ELISA, %) (human Ang2 [26])?
A: 81%

Q: What about the Relative binding Activity to VEGF A (ELISA, %) (human VEGF165 [27]) of the same binder?
A: 113%

From EP4628097A1 (Innovent Biologics (Suzhou) Co., Ltd., dated 2025)
